Experimental data published in article PMC2788937 (Science signaling, 2009).
No end group written: not given here.

Columns and labels:
[1] = target: FLAG-tagged human β2-adrenergic receptor (human, UniProt P07550 1-413); assay: pull-down
GST-β2AR(330–413) = GST-β2AR(330–413) (human, UniProt P07550 330-413); assay: pull-down

Binder	binding result [1]	binding result (GST-β2AR(330–413))
LRGDQITWIGGNEEGCEAISFLLSLIDRLVLYCGSRLGKYYVKE (domain or fragment, human, UniProt Q9H6Z9 73-116, looked up) [GST-EGLN3^(73-116)]	binds	–
EAISFLLSLIDRLVLY (also: FITC label, position not given here) [FITC-labeled peptide derived from human EGLN3(89–104)]	–	binds
